Results reported in IntAct's records for PubMed 31515488.

B1: Keratin, type II cytoskeletal 79 (Homo sapiens), Q5XKE5 (parent)
chain: MRSSVSRQTYSTKGGFSSNSASGGSGSQARTSFSSVTVSRSSGSGGGAHCGPGTGGFGSRSLYNLGGHKSISVSVAGGALLGRALGGFGFGSRAFMGQGAGRQTFGPACPPGGIQEVTVNQSLLTPLHVEIDPEIQRVRTQEREQIKTLNNKFASFIDKVRFLEQQNKVLETKWALLQEQGQNLGVTRNNLEPLFEAYLGSMRSTLDRLQSERGRLDSELRNVQDLVEDFKNKYEDEINKHTAAENEFVVLKKDVDAAYMGRMDLHGKVGTLTQEIDFLQQLYEMELSQVQTHVSNTNVVLSMDNNRNLDLDSIIAEVKAQYELIAQRSRAEAEAWYQTKYEELQVTAGKHGDNLRDTKNEIAELTRTIQRLQGEADAAKKQCQQLQTAIAEAEQRGELALKDAQKKLGDLDVALHQAKEDLTRLLRDYQELMNVKLALDVEIATYRKLLESEESRMSGECPSAVSISVTGNSTTVCGGGAASFGGGISLGGSGGATKGGFSTNVGYSTVKGGPVSAGTSILRKTTTVKTSSQRY
B2: "N-acyl-aromatic-L-amino acid amidohydrolase (carboxylate-forming)" (Homo sapiens), Q96HD9 (parent)
chain: MCSLPVPREPLRRVAVTGGTHGNEMSGVYLARHWLHAPAELQRASFSAVPVLANPAATSGCRRYVDHDLNRTFTSSFLNSRPTPDDPYEVTRARELNQLLGPKASGQAFDFVLDLHNTTANMGTCLIAKSSHEVFAMHLCRHLQLQYPELSCQVFLYQRSGEESYNLDSVAKNGLGLELGPQPQGVLRADIFSRMRTLVATVLDFIELFNQGTAFPAFEMEAYRPVGVVDFPRTEAGHLAGTVHPQLQDRDFQPLQPGAPIFQMFSGEDLLYEGESTVYPVFINEAAYYEKGVAFVQTEKFTFTVPAMPALTPAPSPAS
partner: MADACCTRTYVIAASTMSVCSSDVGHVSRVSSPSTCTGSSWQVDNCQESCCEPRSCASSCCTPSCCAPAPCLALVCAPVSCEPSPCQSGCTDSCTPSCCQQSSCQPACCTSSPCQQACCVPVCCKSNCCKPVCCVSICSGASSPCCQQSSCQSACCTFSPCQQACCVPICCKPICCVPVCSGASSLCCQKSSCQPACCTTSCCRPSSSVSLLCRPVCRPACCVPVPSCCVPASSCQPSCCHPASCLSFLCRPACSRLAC
B3: Asparagine synthetase [glutamine-hydrolyzing] (Homo sapiens), P08243 (parent)
chain: MCGIWALFGSDDCLSVQCLSAMKIAHRGPDAFRFENVNGYTNCCFGFHRLAVVDPLFGMQPIRVKKYPYLWLCYNGEIYNHKKMQQHFEFEYQTKVDGEIILHLYDKGGIEQTICMLDGVFAFVLLDTANKKVFLGRDTYGVRPLFKAMTEDGFLAVCSEAKGLVTLKHSATPFLKVEPFLPGHYEVLDLKPNGKVASVEMVKYHHCRDVPLHALYDNVEKLFPGFEIETVKNNLRILFNNAVKKRLMTDRRIGCLLSGGLDSSLVAATLLKQLKEAQVQYPLQTFAIGMEDSPDLLAARKVADHIGSEHYEVLFNSEEGIQALDEVIFSLETYDITTVRASVGMYLISKYIRKNTDSVVIFSGEGSDELTQGYIYFHKAPSPEKAEEESERLLRELYLFDVLRADRTTAAHGLELRVPFLDHRFSSYYLSLPPEMRIPKNGIEKHLLRETFEDSNLIPKEILWRPKEAFSDGITSVKNSWFKILQEYVEHQVDDAMMANAAQKFPFNTPKTKEGYYYRQVFERHYPGRADWLSHYWMPKWINATDPSARTLTHYKSAVKA
partner: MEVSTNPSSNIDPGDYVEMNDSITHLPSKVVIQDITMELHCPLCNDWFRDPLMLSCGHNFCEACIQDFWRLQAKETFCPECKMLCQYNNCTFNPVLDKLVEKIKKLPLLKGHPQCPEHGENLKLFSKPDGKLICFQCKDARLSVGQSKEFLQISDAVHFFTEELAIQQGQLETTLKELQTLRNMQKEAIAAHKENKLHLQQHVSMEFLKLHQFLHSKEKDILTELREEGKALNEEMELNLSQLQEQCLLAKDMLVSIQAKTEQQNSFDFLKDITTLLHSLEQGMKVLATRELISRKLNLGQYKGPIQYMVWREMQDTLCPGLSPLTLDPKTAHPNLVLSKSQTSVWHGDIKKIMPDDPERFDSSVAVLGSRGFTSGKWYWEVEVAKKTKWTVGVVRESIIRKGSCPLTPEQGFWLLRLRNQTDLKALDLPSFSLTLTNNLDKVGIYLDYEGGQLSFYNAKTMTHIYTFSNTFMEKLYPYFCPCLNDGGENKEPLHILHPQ
B4: 3-hydroxyanthranilate 3,4-dioxygenase (Homo sapiens), P46952 (parent)
chain: MERRLGVRAWVKENRGSFQPPVCNKLMHQEQLKVMFIGGPNTRKDYHIEEGEEVFYQLEGDMVLRVLEQGKHRDVVIRQGEIFLLPARVPHSPQRFANTVGLVVERRRLETELDGLRYYVGDTMDVLFEKWFYCKDLGTQLAPIIQEFFSSEQYRTGKPIPDQLLKEPPFPLSTRSIMEPMSLDAWLDSHHRELQAGTPLSLFGDTYETQVIAYGQGSSEGLRQNVDVWLWQLEGSSVVTMGGRRLSLAPDDSLLVLAGTSYAWERTQGSVALSVTQDPACKKPLG
partner: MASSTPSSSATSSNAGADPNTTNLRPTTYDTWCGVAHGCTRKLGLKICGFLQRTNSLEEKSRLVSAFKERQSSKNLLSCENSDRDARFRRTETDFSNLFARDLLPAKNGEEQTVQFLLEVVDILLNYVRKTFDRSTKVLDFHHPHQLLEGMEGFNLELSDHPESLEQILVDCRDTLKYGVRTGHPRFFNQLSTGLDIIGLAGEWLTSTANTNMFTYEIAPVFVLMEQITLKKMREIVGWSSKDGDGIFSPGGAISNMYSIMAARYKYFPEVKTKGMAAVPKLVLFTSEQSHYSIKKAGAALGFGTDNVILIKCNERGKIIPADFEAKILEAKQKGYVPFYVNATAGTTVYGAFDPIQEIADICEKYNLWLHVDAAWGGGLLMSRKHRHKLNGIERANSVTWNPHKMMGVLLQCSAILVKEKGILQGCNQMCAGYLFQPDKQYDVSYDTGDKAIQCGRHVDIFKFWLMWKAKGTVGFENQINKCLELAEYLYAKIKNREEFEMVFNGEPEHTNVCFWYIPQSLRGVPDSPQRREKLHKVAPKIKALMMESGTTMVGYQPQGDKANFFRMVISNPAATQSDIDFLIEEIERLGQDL
B5: Aminoacylase-1 (Homo sapiens), Q03154 (parent)
chain: MTSKGPEEEHPSVTLFRQYLRIRTVQPKPDYGAAVAFFEETARQLGLGCQKVEVAPGYVVTVLTWPGTNPTLSSILLNSHTDVVPVFKEHWSHDPFEAFKDSEGYIYARGAQDMKCVSIQYLEAVRRLKVEGHRFPRTIHMTFVPDEEVGGHQGMELFVQRPEFHALRAGFALDEGIANPTDAFTVFYSERSPWWVRVTSTGRPGHASRFMEDTAAEKLHKVVNSILAFREKEWQRLQSNPHLKEGSVTSVNLTKLEGGVAYNVIPATMSASFDFRVAPDVDFKAFEEQLQSWCQAAGEGVTLEFAQKWMHPQVTPTDDSNPWWAAFSRVCKDMNLTLEPEIMPAATDNRYIRAVGVPALGFSPMNRTPVLLHDHDERLHEAVFLRGVDIYTRLLPALASVPALPSDS
B6: Protein LDOC1 (Homo sapiens), O95751 (parent)
chain: MVDELVLLLHALLMRHRALSIENSQLMEQLRLLVCERASLLRQVRPPSCPVPFPETFNGESSRLPEFIVQTASYMLVNENRFCNDAMKVAFLISLLTGEAEEWVVPYIEMDSPILGDYRAFLDEMKQCFGWDDDEDDDDEEEEDDY
partner: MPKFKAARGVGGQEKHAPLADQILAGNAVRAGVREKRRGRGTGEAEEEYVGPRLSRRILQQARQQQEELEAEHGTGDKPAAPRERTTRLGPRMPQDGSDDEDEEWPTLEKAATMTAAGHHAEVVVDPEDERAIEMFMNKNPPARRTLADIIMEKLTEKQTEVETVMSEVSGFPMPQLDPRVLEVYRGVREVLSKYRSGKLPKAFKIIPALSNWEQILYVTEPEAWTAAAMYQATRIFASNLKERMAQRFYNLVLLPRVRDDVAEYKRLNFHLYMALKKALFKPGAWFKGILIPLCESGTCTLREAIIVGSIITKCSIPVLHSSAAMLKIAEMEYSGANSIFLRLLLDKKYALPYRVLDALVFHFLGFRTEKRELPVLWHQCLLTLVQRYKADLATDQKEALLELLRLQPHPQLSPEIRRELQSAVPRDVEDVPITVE
B7: Ribonuclease P protein subunit p25-like protein (Homo sapiens), Q8N5L8 (parent)
chain: MEHYRKAGSVELPAPSPMPQLPPDTLEMRVRDGSKIRNLLGLALGRLEGGSARHVVFSGSGRAAGKAVSCAEIVKRRVPGLHQLTKLRFLQTEDSWVPASPDTGLDPLTVRRHVPAVWVLLSRDPLDPNECGYQPPGAPPGLGSMPSSSCGPRSRRRARDTRS
partner: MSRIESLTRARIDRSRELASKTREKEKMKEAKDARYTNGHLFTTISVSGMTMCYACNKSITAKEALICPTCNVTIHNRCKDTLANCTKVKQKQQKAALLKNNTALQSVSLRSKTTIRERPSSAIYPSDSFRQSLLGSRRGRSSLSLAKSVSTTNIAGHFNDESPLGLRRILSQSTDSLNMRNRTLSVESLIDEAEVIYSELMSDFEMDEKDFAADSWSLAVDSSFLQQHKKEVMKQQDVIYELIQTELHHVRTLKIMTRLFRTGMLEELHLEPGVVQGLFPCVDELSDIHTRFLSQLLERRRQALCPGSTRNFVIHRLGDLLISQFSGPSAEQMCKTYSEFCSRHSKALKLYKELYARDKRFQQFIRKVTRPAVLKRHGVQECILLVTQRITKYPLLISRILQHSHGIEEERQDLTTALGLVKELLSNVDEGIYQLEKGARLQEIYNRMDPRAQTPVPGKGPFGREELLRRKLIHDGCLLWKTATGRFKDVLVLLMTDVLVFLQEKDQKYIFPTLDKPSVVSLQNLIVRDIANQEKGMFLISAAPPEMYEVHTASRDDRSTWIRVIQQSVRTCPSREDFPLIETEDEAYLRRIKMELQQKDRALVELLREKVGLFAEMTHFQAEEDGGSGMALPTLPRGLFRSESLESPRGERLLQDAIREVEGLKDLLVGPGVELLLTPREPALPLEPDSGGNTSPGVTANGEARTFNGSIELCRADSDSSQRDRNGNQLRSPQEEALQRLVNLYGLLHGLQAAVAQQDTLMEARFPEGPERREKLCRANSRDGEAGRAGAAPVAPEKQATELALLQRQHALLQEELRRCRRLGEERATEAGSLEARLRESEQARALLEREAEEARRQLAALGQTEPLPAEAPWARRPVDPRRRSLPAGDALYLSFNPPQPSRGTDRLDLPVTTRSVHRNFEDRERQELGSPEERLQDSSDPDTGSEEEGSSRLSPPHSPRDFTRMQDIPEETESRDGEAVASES

Variants of: B1
Details: with KRT15, P19012
KRT15, P19012, sequence (P19012 whole entry): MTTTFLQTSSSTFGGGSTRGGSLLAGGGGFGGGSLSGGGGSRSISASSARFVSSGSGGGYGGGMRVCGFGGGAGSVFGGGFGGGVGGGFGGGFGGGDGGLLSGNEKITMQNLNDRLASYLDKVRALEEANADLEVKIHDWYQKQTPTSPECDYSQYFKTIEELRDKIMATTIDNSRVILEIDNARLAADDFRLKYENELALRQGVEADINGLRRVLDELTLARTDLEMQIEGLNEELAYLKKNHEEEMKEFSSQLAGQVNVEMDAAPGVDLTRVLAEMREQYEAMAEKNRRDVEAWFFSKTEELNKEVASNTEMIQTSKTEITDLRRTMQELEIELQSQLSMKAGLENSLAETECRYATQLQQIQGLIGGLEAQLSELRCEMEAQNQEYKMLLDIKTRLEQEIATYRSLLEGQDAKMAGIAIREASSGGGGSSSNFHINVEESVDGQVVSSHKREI
With R161Q the “effect of a mutation on the interaction” value was “with no effect”. For G86E, the “effect of a mutation on the interaction” value was “with no effect”.

Variants of: B2
Details: with kr108_human KRTAP10-8, P60410
R8Q was tested, and the “effect of a mutation on the interaction” value was “with no effect”.

Variants of: B3
Details: with tri69_human TRIM69, Q86WT6
A277T was tested, and the “effect of a mutation on the interaction” value was “with no effect”.

Variants of: B4
Details: with dce1_human GAD1, Q99259
With T42S the “effect of a mutation on the interaction” value was “with no effect”. For I37V, the “effect of a mutation on the interaction” value was “with no effect”.

Variants of: B5
Details: with 8odp_human NUDT1, P36639
In the case of R197W, the “effect of a mutation on the interaction” value is reported as “with no effect”.

Variants of: B5
Details: with 8odp_human NUDT1, P36639
Remark: another data set of the same source
With E381D the “effect of a mutation on the interaction” value was “with no effect”.

Variants of: B6
Details: with byst_human BYSL
L12H was tested, and the “effect of a mutation on the interaction” value was “disrupting interaction strength”.

Variants of: B7
Details: with arhg2_human ARHGEF2, Q92974
D127N was tested, and the “effect of a mutation on the interaction” value was “with no effect”. With R155Q the “effect of a mutation on the interaction” value was “with no effect”.
